Measurements published in article PMC6546911 (Nature Communications, 2019).

Molecular target: T1, Fen1, budding yeast, wild-type (budding yeast, UniProt P26793 1-382)
T1 construct: Fen1 (flap endonuclease), budding yeast; source: purified
T1 sequence (looked up): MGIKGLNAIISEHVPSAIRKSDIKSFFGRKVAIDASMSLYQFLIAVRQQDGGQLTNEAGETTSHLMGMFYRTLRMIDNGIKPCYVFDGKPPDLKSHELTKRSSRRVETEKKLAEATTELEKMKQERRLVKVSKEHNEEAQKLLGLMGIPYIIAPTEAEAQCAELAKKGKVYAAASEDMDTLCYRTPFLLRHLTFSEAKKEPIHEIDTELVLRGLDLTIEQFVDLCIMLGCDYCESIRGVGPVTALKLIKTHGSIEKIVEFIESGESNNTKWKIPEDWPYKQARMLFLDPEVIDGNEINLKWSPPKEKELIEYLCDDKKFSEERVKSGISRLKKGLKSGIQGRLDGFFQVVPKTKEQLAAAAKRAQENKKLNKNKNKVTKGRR
Assay: pull-down; purified wild-type or mutant Fen1 mixed with PCNA; Fen1 affinity-purified on anti-FLAG beads; co-isolated PCNA by immunoblot
Conditions: both partners purified

binding result: binds
B1: Yeast PCNA (Pol30p) (natural protein, budding yeast, UniProt P15873 1-258, looked up)
chain: MLEAKFEEASLFKRIIDGFKDCVQLVNFQCKEDGIIAQAVDDSRVLLVSLEIGVEAFQEYRCDHPVTLGMDLTSLSKILRCGNNTDTLTLIADNTPDSIILLFEDTKKDRIAEYSLKLMDIDADFLKIEELQYDSTLSLPSSEFSKIVRDLSQLSDSINIMITKETIKFVADGDIGSGSVIIKPFVDMEHPETSIKLEMDQPVDLTFGAKYLLDIIKGSSLSDRVGIRLSSEAPALFQFDLKSGFLQFFLAPKFNDEE
notes: PCNA (Pol30p), budding yeast; source: E. coli BL21 (DE3), purified
